The labels stand for the following.
T1: SIP2 D1 (Plasmodium falciparum, UniProt C6KSN9 177-235)
T1 sequence: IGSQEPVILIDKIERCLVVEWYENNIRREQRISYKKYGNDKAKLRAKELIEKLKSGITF

B1: GTGCAC_negctrl_site191 (dsDNA)
DNA 1: TTTTAAATTGGAGTGGGCAGATTGATATTATTCTTC
DNA 2: GAAGAATAATATCAATCTGCCCACTCCAATTTAAAA
B2: GTGCAC_site9800 (dsDNA)
DNA 1: AATCATATTAGTATGGTGCAATATATATATAAATAT
DNA 2: ATATTTATATATATATTGCACCATACTAATATGATT
B3: GTGCAC_negctrl_site688 (dsDNA)
DNA 1: ATAATTATTTAATATATATATATTATTTCGAATGTT
DNA 2: AACATTCGAAATAATATATATATATTAAATAATTAT
B4: GTGCAC_negctrl_site491 (dsDNA)
DNA 1: TTTTTTATTTTTTACATATTTAGCTCATATTTATAT
DNA 2: ATATAAATATGAGCTAAATATGTAAAAAATAAAAAA
B5: GTGCAC_site10258 (dsDNA)
DNA 1: GCGTGTGTACAATGAGTGCATATCTAAAGGGAAGAT
DNA 2: ATCTTCCCTTTAGATATGCACTCATTGTACACACGC
B6: GTGCAC_negctrl_site353 (dsDNA)
DNA 1: GAATATTTATGATGAACTATTAATTAATTTTACATA
DNA 2: TATGTAAAATTAATTAATAGTTCATCATAAATATTC
B7: GTGCAC_negctrl_site292 (dsDNA)
DNA 1: TTACGTATGTATTATGTTGTATATGAAATTAAAAAA
DNA 2: TTTTTTAATTTCATATACAACATAATACATACGTAA
B8: GTGCAC_negctrl_site578 (dsDNA)
DNA 1: TTTTATTTTATTCAATTTTTACTTTTATAAAAATAT
DNA 2: ATATTTTTATAAAAGTAAAAATTGAATAAAATAAAA
B9: GTGCAC_negctrl_site608 (dsDNA)
DNA 1: TAATGAGGAAAAAGTGTGTTAAGATTTTATAATTTA
DNA 2: TAAATTATAAAATCTTAACACACTTTTTCCTCATTA
B10: GTGCAC_negctrl_site659 (dsDNA)
DNA 1: TTGTTAATATGATAAAAGAGGAATATTCTCTTCCTA
DNA 2: TAGGAAGAGAATATTCCTCTTTTATCATATTAACAA
B11: GTGCAC_negctrl_site84 (dsDNA)
DNA 1: TTGAGCATAAAATTTGGAAACCTCAATCGGACAAAA
DNA 2: TTTTGTCCGATTGAGGTTTCCAAATTTTATGCTCAA
B12: GTGCAC_negctrl_site458 (dsDNA)
DNA 1: ATGTAATTATAAGATTAATATACATAATTATATGTA
DNA 2: TACATATAATTATGTATATTAATCTTATAATTACAT
B13: GTGCAC_negctrl_site647 (dsDNA)
DNA 1: ATCAGTGATTAGGTTATATATAAAAATGAACTAATA
DNA 2: TATTAGTTCATTTTTATATATAACCTAATCACTGAT
B14: GTGCAC_negctrl_site86 (dsDNA)
DNA 1: ATTTTTTTATACAATTTTATATATTAAATATTATAA
DNA 2: TTATAATATTTAATATATAAAATTGTATAAAAAAAT
B15: GTGCAC_negctrl_site258 (dsDNA)
DNA 1: AATATTTTGTTATTTATTTAATCTAATATTATGATA
DNA 2: TATCATAATATTAGATTAAATAAATAACAAAATATT
B16: GTGCAC_negctrl_site8 (dsDNA)
DNA 1: TTTTGTAGCAAAAAATAGGAAAAAAAAAAATTAAAT
DNA 2: ATTTAATTTTTTTTTTTCCTATTTTTTGCTACAAAA
B17: GTGCAC_negctrl_site108 (dsDNA)
DNA 1: TTGTTTAACTTGTTAAATATAATGTATCTGTGGATA
DNA 2: TATCCACAGATACATTATATTTAACAAGTTAAACAA
B18: GTGCAC_negctrl_site384 (dsDNA)
DNA 1: TTATAATGAAATATATTCTTATTCTTTTTTTTTTTT
DNA 2: AAAAAAAAAAAAGAATAAGAATATATTTCATTATAA
B19: GTGCAC_negctrl_site81 (dsDNA)
DNA 1: TTTATTAGATAACGATAAACGAAAAAAAAAAAATAA
DNA 2: TTATTTTTTTTTTTTCGTTTATCGTTATCTAATAAA
B20: GTGCAC_negctrl_site223 (dsDNA)
DNA 1: AAAAGATTAAGTAGAATAATGTTCTTTCCCAACATA
DNA 2: TATGTTGGGAAAGAACATTATTCTACTTAATCTTTT
B21: GTGCAC_negctrl_site567 (dsDNA)
DNA 1: AATATAAACATAGATAGATAAATAAATAAATAAACA
DNA 2: TGTTTATTTATTTATTTATCTATCTATGTTTATATT
B22: GTGCAC_negctrl_site529 (dsDNA)
DNA 1: TTATTATATATGTTCACATAAATACATAAATATATA
DNA 2: TATATATTTATGTATTTATGTGAACATATATAATAA
B23: GTGCAC_negctrl_site106 (dsDNA)
DNA 1: AAATAAAATAATTATAATACTAAAAATAATACATAA
DNA 2: TTATGTATTATTTTTAGTATTATAATTATTTTATTT
B24: GTGCAC_site10664 (dsDNA)
DNA 1: TATTCATATTTAAAGGTGCAATATTTATTTTGTACA
DNA 2: TGTACAAAATAAATATTGCACCTTTAAATATGAATA
B25: GTGCAC_negctrl_site217 (dsDNA)
DNA 1: TGACTTTGTTGAATTTGTCCTCTTAACTCATAATAT
DNA 2: ATATTATGAGTTAAGAGGACAAATTCAACAAAGTCA
B26: GTGCAC_negctrl_site349 (dsDNA)
DNA 1: AAATAAAAATAAAATAAAATAAAATTAAATGGGAAT
DNA 2: ATTCCCATTTAATTTTATTTTATTTTATTTTTATTT
B27: GTGCAC_negctrl_site403 (dsDNA)
DNA 1: TATTTCATCTTTTAAGAAGGTACCCATATGTCATAT
DNA 2: ATATGACATATGGGTACCTTCTTAAAAGATGAAATA
B28: GTGCAC_negctrl_site214 (dsDNA)
DNA 1: ACCCAAGAGAAAAGAGAAAGAAATATGTGTATATTG
DNA 2: CAATATACACATATTTCTTTCTCTTTTCTCTTGGGT
B29: GTGCAC_negctrl_site586 (dsDNA)
DNA 1: ATATGATTATTATTATATAAATTATAAAGTCTAATA
DNA 2: TATTAGACTTTATAATTTATATAATAATAATCATAT
B30: GTGCAC_negctrl_site391 (dsDNA)
DNA 1: TTTTTTATTTTAATGTATTATTTTTATGTAATATAT
DNA 2: ATATATTACATAAAAATAATACATTAAAATAAAAAA
B31: GTGCAC_negctrl_site665 (dsDNA)
DNA 1: TTTTAAATCTTATATTCCCCACATAAATAGCTCTCT
DNA 2: AGAGAGCTATTTATGTGGGGAATATAAGATTTAAAA
B32: GTGCAC_negctrl_site660 (dsDNA)
DNA 1: AATTAATTTATTTTATAAATAGTTAGATCGTCATAA
DNA 2: TTATGACGATCTAACTATTTATAAAATAAATTAATT
B33: GTGCAC_negctrl_site43 (dsDNA)
DNA 1: ATTTATAAAATATAATTACATTTTTAAATAATAAAA
DNA 2: TTTTATTATTTAAAAATGTAATTATATTTTATAAAT
B34: GTGCAC_negctrl_site296 (dsDNA)
DNA 1: ATTTAAAATAGAAGTTATATTTATATGGGTGAAAAA
DNA 2: TTTTTCACCCATATAAATATAACTTCTATTTTAAAT
B35: GTGCAC_negctrl_site563 (dsDNA)
DNA 1: ATTCAATAATTGTTTTTTTTCTTTTTGTTTTTGTTT
DNA 2: AAACAAAAACAAAAAGAAAAAAAACAATTATTGAAT
B36: GTGCAC_site9498 (dsDNA)
DNA 1: ATTTGTGATTTGTGTGTGCACGTATTTACAGAACAA
DNA 2: TTGTTCTGTAAATACGTGCACACACAAATCACAAAT

One series addresses AP2-I D3 (Plasmodium falciparum, UniProt Q8IJW6 910-1027). Nature of the series: gcPBM; about 25 ug protein; PBS, 1% milk, 0.2 mg/ml BSA, salmon testes DNA, 0.03% Triton X-100. The settings on record: tags: N-terminal GST (pGEX-4T-1), kept; label: surface-attached array probe.
As for B1, the binding signal is 7.28 ln median PBM intensity, better of two orientations. Regarding B2, the binding signal is 12 ln median PBM intensity, better of two orientations. With B3, the binding signal was 7.24 ln median PBM intensity, better of two orientations. The same measure, in the same setting: the result for B4 reads 7.12 ln median PBM intensity, better of two orientations. For B5, the binding signal is 10 ln median PBM intensity, better of two orientations.

In the case of B6, the binding signal was 6.76 ln median PBM intensity, better of two orientations. B7: the binding signal was 7.28 ln median PBM intensity, better of two orientations. As to B8, the binding signal was 7.27 ln median PBM intensity, better of two orientations. For B9, the binding signal is 7.28 ln median PBM intensity, better of two orientations.

On to B10, for which the binding signal is 6.7 ln median PBM intensity, better of two orientations. Turning to B11, the binding signal was 6.92 ln median PBM intensity, better of two orientations. Consider B12, for which the binding signal is 7.02 ln median PBM intensity, better of two orientations. Take B13: the binding signal is 7.28 ln median PBM intensity, better of two orientations. For the molecule B14, the binding signal was 7.23 ln median PBM intensity, better of two orientations. Consider B15, for which the binding signal is 6.98 ln median PBM intensity, better of two orientations. B16: the binding signal was 7.26 ln median PBM intensity, better of two orientations. On to B17, for which the binding signal was 7.12 ln median PBM intensity, better of two orientations. As to B18, the binding signal was 7.14 ln median PBM intensity, better of two orientations. For the molecule B19, the binding signal is 7.19 ln median PBM intensity, better of two orientations. Consider B20, for which the binding signal is 7.05 ln median PBM intensity, better of two orientations.

In the case of B21, the binding signal was 7.22 ln median PBM intensity, better of two orientations. On the same count and under the same terms, next, B22: 7.24 ln median PBM intensity, better of two orientations. With B23, the binding signal was 7.24 ln median PBM intensity, better of two orientations.

B24: the binding signal was 11.2 ln median PBM intensity, better of two orientations.

Consider B25, for which the binding signal was 7.06 ln median PBM intensity, better of two orientations.

Regarding B26, the binding signal is 7.26 ln median PBM intensity, better of two orientations. Take B27: the binding signal is 7.27 ln median PBM intensity, better of two orientations. In the case of B28, the binding signal is 7.02 ln median PBM intensity, better of two orientations.

Regarding B29, the binding signal is 6.95 ln median PBM intensity, better of two orientations. For B30, the binding signal was 7.14 ln median PBM intensity, better of two orientations. Turning to B31, the binding signal is 7.16 ln median PBM intensity, better of two orientations. As for B32, the binding signal is 7.02 ln median PBM intensity, better of two orientations.

On to B33, for which the binding signal was 7.13 ln median PBM intensity, better of two orientations. Regarding B34, the binding signal was 7.29 ln median PBM intensity, better of two orientations.

Consider B35, for which the binding signal was 6.85 ln median PBM intensity, better of two orientations. Take B36: the binding signal was 10.7 ln median PBM intensity, better of two orientations.

The next series addresses T1, SIP2 D1. The description is as above. As to conditions: tags: N-terminal GST (pGEX-4T-1), kept; label: surface-attached array probe.
For the molecule B1, the binding signal is 6.81 ln median PBM intensity, better of two orientations.

On to B2, for which the binding signal was 9.96 ln median PBM intensity, better of two orientations.

On to B4, for which the binding signal was 6.81 ln median PBM intensity, better of two orientations. The same measure, in the same setting: next, B5: 9.38 ln median PBM intensity, better of two orientations; B6: 6.72 ln median PBM intensity, better of two orientations; B10: 6.7 ln median PBM intensity, better of two orientations. On the same count and under the same terms, next, B11: 6.59 ln median PBM intensity, better of two orientations; B12: 6.75 ln median PBM intensity, better of two orientations. As for B13, the binding signal was 6.8 ln median PBM intensity, better of two orientations.

Regarding B15, the binding signal is 6.61 ln median PBM intensity, better of two orientations.

Regarding B17, the binding signal was 6.74 ln median PBM intensity, better of two orientations. Consider B18, for which the binding signal is 6.7 ln median PBM intensity, better of two orientations. The same measure, in the same setting: next, B19: 6.8 ln median PBM intensity, better of two orientations; B20: 6.44 ln median PBM intensity, better of two orientations. For the molecule B24, the binding signal is 9.97 ln median PBM intensity, better of two orientations. On to B25, for which the binding signal is 6.72 ln median PBM intensity, better of two orientations.

For B28, the binding signal was 6.82 ln median PBM intensity, better of two orientations. Still for that read-out and setting: the result for B29 reads 6.69 ln median PBM intensity, better of two orientations; that for B30, 6.72 ln median PBM intensity, better of two orientations. B31: the binding signal was 6.72 ln median PBM intensity, better of two orientations.

B32: the binding signal is 6.78 ln median PBM intensity, better of two orientations.

For B33, the binding signal was 6.72 ln median PBM intensity, better of two orientations. Take B35: the binding signal is 6.64 ln median PBM intensity, better of two orientations. As for B36, the binding signal was 9.78 ln median PBM intensity, better of two orientations.

The record behind these values is paper PMC11417369, “DNA sequence and chromatin differentiate sequence-specific transcription factor binding in the human malaria parasite Plasmodium falciparum”.
